Source: publication PMC8754659

Target: SpyCas9 (Streptococcus pyogenes, UniProt Q99ZW2 1-1368)
Assay: EMSA

Sequence of SpyCas9 (Q99ZW2 whole entry): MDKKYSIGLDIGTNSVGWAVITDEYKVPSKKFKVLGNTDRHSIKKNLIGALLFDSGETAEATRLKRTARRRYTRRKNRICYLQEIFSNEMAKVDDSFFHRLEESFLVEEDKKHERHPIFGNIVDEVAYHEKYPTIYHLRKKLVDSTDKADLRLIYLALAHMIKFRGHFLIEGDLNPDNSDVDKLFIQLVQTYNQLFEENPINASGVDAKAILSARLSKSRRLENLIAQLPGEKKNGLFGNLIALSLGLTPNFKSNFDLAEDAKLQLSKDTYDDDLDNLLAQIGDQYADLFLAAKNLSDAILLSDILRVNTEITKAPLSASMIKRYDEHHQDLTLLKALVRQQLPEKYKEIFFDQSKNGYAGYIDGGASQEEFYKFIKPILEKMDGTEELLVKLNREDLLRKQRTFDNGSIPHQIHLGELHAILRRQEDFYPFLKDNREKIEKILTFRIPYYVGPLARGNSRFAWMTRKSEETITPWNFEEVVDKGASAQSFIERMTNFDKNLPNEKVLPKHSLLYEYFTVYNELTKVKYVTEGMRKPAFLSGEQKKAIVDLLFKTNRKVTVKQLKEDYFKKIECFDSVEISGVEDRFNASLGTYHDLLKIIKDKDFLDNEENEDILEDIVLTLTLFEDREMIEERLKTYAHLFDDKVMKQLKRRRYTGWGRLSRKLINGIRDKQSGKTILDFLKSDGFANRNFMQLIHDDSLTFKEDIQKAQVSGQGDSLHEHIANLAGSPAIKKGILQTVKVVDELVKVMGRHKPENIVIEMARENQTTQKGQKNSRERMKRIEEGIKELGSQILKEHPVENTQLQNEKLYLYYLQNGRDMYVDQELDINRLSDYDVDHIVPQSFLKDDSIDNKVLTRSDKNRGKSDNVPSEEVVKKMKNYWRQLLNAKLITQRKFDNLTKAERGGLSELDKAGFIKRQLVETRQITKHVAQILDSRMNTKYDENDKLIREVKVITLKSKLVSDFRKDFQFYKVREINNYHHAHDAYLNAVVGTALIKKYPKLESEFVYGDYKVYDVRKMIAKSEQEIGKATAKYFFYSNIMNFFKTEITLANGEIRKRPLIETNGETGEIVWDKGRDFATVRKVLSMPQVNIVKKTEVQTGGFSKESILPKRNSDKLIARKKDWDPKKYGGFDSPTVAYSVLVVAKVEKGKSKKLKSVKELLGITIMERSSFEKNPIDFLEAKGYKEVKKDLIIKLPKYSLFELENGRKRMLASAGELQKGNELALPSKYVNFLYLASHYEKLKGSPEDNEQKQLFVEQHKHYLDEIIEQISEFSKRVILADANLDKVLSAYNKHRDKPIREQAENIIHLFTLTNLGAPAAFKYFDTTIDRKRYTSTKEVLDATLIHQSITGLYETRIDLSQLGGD

B1: sgRNA (20 nt spacer) + FAM target DNA 38 bp (mixed)
DNA 1: ATTGCCGTCAGGAAATTAGGTGCGCTTAGCTGGTATTG
DNA 2: CAATACCAGCTAAGCGCACCTAATTTCCTGACGGCAAT
  binding result: binds
